Results: patent US20250145684A1 (IMMATICS BIOTECHNOLOGIES, published 2025)

target: T1, HLA-B*44:05 (human); test: UV peptide exchange ELISA
T1 construct: MHC monomer first loaded with a UV-sensitive peptide that is cleaved by UV light and exchanged for the test peptide
Summary of the method: (§1)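 Peptide–MHC complexes formed by UV-mediated exchange of a photocleavable ligand; exchange yield assessed by ELISA on streptavidin-coated plates, samples diluted 100-fold. Bound complexes detected with HRP anti-β2m and TMB at 450 nm against HLA-A*02:01 monomer standards (15–500 ng/ml).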

EEFLTPKKL [EEFLTPKKL (SEQ ID NO: 290)]: binds.

target: T2, HLA-A*02:01 (human); test: UV peptide exchange ELISA
T2 construct: MHC monomer first loaded with a UV-sensitive peptide that is cleaved by UV light and exchanged for the test peptide
Summary of the method: as §1

YVYANHFTEA (also called COL6A3-039) [YVYANHFTEA (SEQ ID NO: 291)]: binds.

target: T3, HLA-B*08:01 (human); test: UV peptide exchange ELISA
T3 construct: MHC monomer first loaded with a UV-sensitive peptide that is cleaved by UV light and exchanged for the test peptide
Summary of the method: as §1

EVYLRMYQL [EVYLRMYQL (SEQ ID NO: 80)] and FVRPKLVTI [FVRPKLVTI (SEQ ID NO: 8)] fall in the same range of peptide exchange yield: 50 to 75% for the first, 50 to 75% for the second.

MYRKEQYL [MYRKEQYL (SEQ ID NO: 81)] and SIRKRPML [SIRKRPML (SEQ ID NO: 82)] fall in the same range of peptide exchange yield: 20 to 50% for the first, 20 to 50% for the second.

First: FVLLRSVDL [FVLLRSVDL (SEQ ID NO: 83)]
Second: YITRQFVQF [YITRQFVQF (SEQ ID NO: 84)]
The peptide exchange yield of the first is higher: 50 to 75% for the first, 20 to 50% for the second.

QKPRKKKL [QKPRKKKL (SEQ ID NO: 85)] and RPIHHPLVL [RPIHHPLVL (SEQ ID NO: 86)] fall in the same range of peptide exchange yield: 20 to 50% for the first, 20 to 50% for the second.

First: QILQHHVL [QILQHHVL (SEQ ID NO: 87)]
Second: MLLCLSLEL [MLLCLSLEL (SEQ ID NO: 88)]
The peptide exchange yield of the first is higher: 50 to 75% for the first, 20 to 50% for the second.

First: VPYTKVQL [VPYTKVQL (SEQ ID NO: 89)]
Second: TIGLGLHSL [TIGLGLHSL (SEQ ID NO: 90)]
The peptide exchange yield of the first is higher: 50 to 75% for the first, 20 to 50% for the second.

LLKGKPRAL [LLKGKPRAL (SEQ ID NO: 9)] and MPMQDIKMIL [MPMQDIKMIL (SEQ ID NO: 91)] fall in the same range of peptide exchange yield: 20 to 50% for the first, 20 to 50% for the second.

TLKAMVQAW [TLKAMVQAW (SEQ ID NO: 92)] and LMKEKIQEM [LMKEKIQEM (SEQ ID NO: 93)] fall in the same range of peptide exchange yield: 50 to 75% for the first, 50 to 75% for the second.

Compared with DQLLRHVM [DQLLRHVM (SEQ ID NO: 94)], SRNPRGFFL [SRNPRGFFL (SEQ ID NO: 95)] is lower in peptide exchange yield: 50 to 75% for the first, 20 to 50% for the second.

RPAGVFEL [RPAGVFEL (SEQ ID NO: 96)] and EPVNTNVVL [EPVNTNVVL (SEQ ID NO: 98)] fall in the same range of peptide exchange yield: 20 to 50% for the first, 20 to 50% for the second.

NVKIRFLE [NVKIRFLE (SEQ ID NO: 99)] and VLLMGPLHL [VLLMGPLHL (SEQ ID NO: 100)] fall in the same range of peptide exchange yield: 20 to 50% for the first, 20 to 50% for the second.
